Assay results as given in PMC4517869, “EIN3 and ORE1 Accelerate Degreening during Ethylene-Mediated Leaf Senescence by Directly Activating Chlorophyll Catabolic Genes in Arabidopsis”.

Columns and labels:
MBP-N-EIN3 [1] = target: T1, MBP-N-EIN3 (Arabidopsis thaliana, UniProt O24606 1-314); experiment: competition; unlabeled 800-fold excess vs ORE1-EBS; LightShift Chemiluminescent EMSA kit binding buffer (composition, pH, temperature not given); 400 ng protein, 12.5 fmol 5'-biotin probe, 1 ug poly(dI-dC), 15 min; settings: protein: recombinant; tags: N-terminal MBP (pMAL-c5g); chain copies: 2; blunt
T1 sequence: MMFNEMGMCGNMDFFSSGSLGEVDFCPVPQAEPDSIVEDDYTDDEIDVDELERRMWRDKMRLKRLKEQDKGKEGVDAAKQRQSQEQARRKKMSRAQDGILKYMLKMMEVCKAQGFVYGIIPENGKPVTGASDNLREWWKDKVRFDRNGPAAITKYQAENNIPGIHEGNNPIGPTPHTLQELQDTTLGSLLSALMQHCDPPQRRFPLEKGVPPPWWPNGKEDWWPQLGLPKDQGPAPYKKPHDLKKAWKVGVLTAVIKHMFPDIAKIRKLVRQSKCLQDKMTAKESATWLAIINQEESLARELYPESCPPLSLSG

MBP-ORE1 = target: T2, MBP-ORE1 (Arabidopsis thaliana, UniProt Q9FKA0 1-285); experiment: EMSA; LightShift Chemiluminescent EMSA kit binding buffer (composition, pH, temperature not given); 400 ng protein, 12.5 fmol 5'-biotin probe, 1 ug poly(dI-dC), 15 min; settings: protein: recombinant; tags: N-terminal MBP (pMAL-c5g); chain copies: 2; label: 5'-biotin; blunt
T2 sequence: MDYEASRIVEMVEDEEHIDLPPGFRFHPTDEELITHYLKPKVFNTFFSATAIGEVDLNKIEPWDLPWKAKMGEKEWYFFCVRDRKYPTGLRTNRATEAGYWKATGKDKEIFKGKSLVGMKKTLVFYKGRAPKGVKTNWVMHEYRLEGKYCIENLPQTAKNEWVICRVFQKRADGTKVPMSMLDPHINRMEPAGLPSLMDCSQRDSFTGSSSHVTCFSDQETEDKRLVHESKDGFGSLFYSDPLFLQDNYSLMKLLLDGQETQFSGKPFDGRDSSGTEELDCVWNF

MBP-N-EIN3 [2] = target: T1, MBP-N-EIN3; experiment: as above; settings: protein: recombinant; tags: N-terminal MBP (pMAL-c5g); chain copies: 2; label: 5'-biotin; blunt
MBP-N-EIN3 [3] = target: T1, MBP-N-EIN3; experiment: competition; unlabeled 800-fold excess vs NYE1-EBS; LightShift Chemiluminescent EMSA kit binding buffer (composition, pH, temperature not given); 400 ng protein, 12.5 fmol 5'-biotin probe, 1 ug poly(dI-dC), 15 min; settings: protein: recombinant; tags: N-terminal MBP (pMAL-c5g); chain copies: 2; blunt
MBP-N-EIN3 [4] = target: T1, MBP-N-EIN3; experiment: competition; unlabeled 800-fold excess vs NYC1-EBS; LightShift Chemiluminescent EMSA kit binding buffer (composition, pH, temperature not given); 400 ng protein, 12.5 fmol 5'-biotin probe, 1 ug poly(dI-dC), 15 min; settings: protein: recombinant; tags: N-terminal MBP (pMAL-c5g); chain copies: 2; blunt
MBP-N-EIN3 [5] = target: T1, MBP-N-EIN3; experiment: competition; unlabeled 800-fold excess vs PAO-EBS; LightShift Chemiluminescent EMSA kit binding buffer (composition, pH, temperature not given); 400 ng protein, 12.5 fmol 5'-biotin probe, 1 ug poly(dI-dC), 15 min; settings: protein: recombinant; tags: N-terminal MBP (pMAL-c5g); chain copies: 2; blunt

B1: ORE1-EBSm (dsDNA)
DNA 1: ATACTTTACAAGGGTAATGCATGCATAC
DNA 2: GTATGCATGCATTACCCTTGTAAAGTAT
B1: no binding (MBP-N-EIN3 [1]).

B2: NYC1-OBS (dsDNA)
DNA 1: GAGGTTGCTGTAACGTGTGGCCATCACAC
DNA 2: GTGTGATGGCCACACGTTACAGCAACCTC
B2: binds (MBP-ORE1).

B3: NOL-OBS (dsDNA)
DNA 1: AGCTTGCTCGCTTACGCAACTCTCTCTCT
DNA 2: AGAGAGAGAGTTGCGTAAGCGAGCAAGCT
B3: binds (MBP-ORE1).

B4: PAO-OBS (dsDNA)
DNA 1: ATTGCATACTTGCACGCAATCTCTTCTTC
DNA 2: GAAGAAGAGATTGCGTGCAAGTATGCAAT
B4: binds (MBP-ORE1).

B5: ACS2-OBS (dsDNA)
DNA 1: GGAATTATGTGGAGGACGTACGTTTATACATGTGCAGACTACAAC
DNA 2: GTTGTAGTCTGCACATGTATAAACGTACGTCCTCCACATAATTCC
B5: binds (MBP-ORE1).

B6: NYE1-EBS (dsDNA)
DNA 1: GTTTAGGTAAGCAATACGAACCTGGATAAACGAAATGC
DNA 2: GCATTTCGTTTATCCAGGTTCGTATTGCTTACCTAAAC
B6: binds (MBP-N-EIN3 [2]).

B7: NYE1-EBSm (dsDNA)
DNA 1: GTTTAGGTAAGCAATTTTTTTTTGGATAAACGAAATGC
DNA 2: GCATTTCGTTTATCCAAAAAAAAATTGCTTACCTAAAC
B7: no binding (MBP-N-EIN3 [3]).

B8: NYC1-EBS (dsDNA)
DNA 1: TAATTTACTCAGGTACATAAGTAATGAC
DNA 2: GTCATTACTTATGTACCTGAGTAAATTA
B8: binds (MBP-N-EIN3 [2]).

B9: NYC1-EBSm (dsDNA)
DNA 1: TAATTTACTCAAAAAAAAAAGTAATGAC
DNA 2: GTCATTACTTTTTTTTTTGAGTAAATTA
B9: no binding (MBP-N-EIN3 [4]).

B10: PAO-EBS (dsDNA)
DNA 1: GCTTGAAATAAGATTCATCAGAAGAGTA
DNA 2: TACTCTTCTGATGAATCTTATTTCAAGC
B10: binds (MBP-N-EIN3 [2]).

B11: PAO-EBSm (dsDNA)
DNA 1: GCTTGAAATAAAAAAAAACAGAAGAGTA
DNA 2: TACTCTTCTGTTTTTTTTTATTTCAAGC
B11: no binding (MBP-N-EIN3 [5]).

B12: NYE1-OBS (dsDNA)
DNA 1: GTGGTTTCAGTGTACGAACACGCAAGAACTC
DNA 2: GAGTTCTTGCGTGTTCGTACACTGAAACCAC
B12: binds (MBP-ORE1).
